According to patent US20140017235A1 (published 2014):

Target: T1, human NGF (human, UniProt P01138 122-241)
T1 construct: also called hNGF; nerve growth factor
Experiment: BIAcore SPR screening, Fab over immobilized human NGF
Method: Affinities of anti-NGF Fabs and monoclonal antibodies were determined using the BIAcore3000™ surface plasmon resonance (SPR) system (BIAcore, INC, Piscaway N.J.). CM5 chips were activated with N-ethyl-N′-(3-dimethylaminopropyl)-carbodiinide hydrochloride (EDC) and N-hydroxysuccinimide (NHS) according to the supplier's instructions. Human NGF was diluted into 10 mM sodium acetate pH 4.0 and injected over the activated chip at a concentration of 0.005 mg/mL. Using variable flow time across the individual chip channels, two ranges of antigen density were achieved: 100-200 response units (RU) for detailed kinetic studies and 500-600 RU for screening assays. The chip was blocked with ethanolamine. […] HBS-EP buffer (0.01M HEPES, pH 7.4, 0.15 NaCl, 3 mM EDTA, 0.005% Surfactant […]) was used as running buffer for all the BIAcore assays.

T1 sequence (P01138 122-241 limits assumed): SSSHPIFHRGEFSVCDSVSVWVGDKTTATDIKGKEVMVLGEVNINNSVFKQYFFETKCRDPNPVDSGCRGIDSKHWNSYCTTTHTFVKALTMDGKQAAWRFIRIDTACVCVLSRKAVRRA

B1: H19-L129 (Fab, V domains shown)
VH: QVQLQESGPGLVKPSETLSLTCTVSGFSLIGYDLNWIRQPPGKGLEWIGIIWGDGTTDYNSAVKSRVTISKDTSKNQFSLKLSSVTAADTAVYYCARGGYYYGTSYYFDYWGQGTLVTVS
VL: DIQMTQSPSSLSASVGDRVTITCRASQSISNNLNWYQQKPGKAPKLLIYYTSRFHSGVPSRFSGSGSGTDFTFTISSLQPEDIATYYCQQSKTLPYTFGQGTKLEIKR
notes: E. coli Fab with human Ckappa and human IgG2a CH1; also called H19-L129 Fab; Fab H19-L129
Which koff does the source give for B1 here?
The koff was 0.0001 s⁻¹.
